According to PMC7401801:

Target: CRM1 (UniProt O14980)
Assay: GFP IP of CRM1-EGFP, Flag blot
Conditions: reference: Flag-TFEB wild type; sites S142

binding against the reference: weaker
Substance: TFEB (from UniProt P19484) Flag-TFEB(S142A)
